Experimental data: patent US8389575B2, “Control of enzymatic peracid generation” (E.I. du Pont de Nemours and Company, priority 2008, dated 2013)

Assay: Peracetic acid production by Thermotoga neapolitana perhydrolase, control by bicarbonate buffer concentration
Format: biochemical
Details: 100 mM triacetin
Protocol: A cell extract of an E. coli transformant expressing perhydrolase from Thermotoga neapolitana (KLP18/pSW196) was prepared by passing a suspension of cell paste (20 wt % wet cell weight) in 0.05 M potassium phosphate buffer (pH 7.0) containing dithiothreitol (1 mM) twice through a French press having a working pressure of 16,000 psi (˜110 MPa). The crude extract was then centrifuged at 20,000×g to remove cellular debris, producing a clarified cell extract that was assayed for total soluble protein (Bicinchoninic Acid Kit for Protein Determination, Sigma Aldrich catalog #BCA1-KT). The clarified extract was heated for 20 min at 75° C., followed immediately by cooling in an ice/water bath. The resulting mixture was centrifuged to remove precipitated protein, and the supernatant collected and assayed for total soluble protein as before. […] The supernatant was frozen in dry ice and stored at −80° C.
Reactions (10 mL total volume) containing triacetin, hydrogen peroxide and heat-treated, centrifuged cell extract supernatant (prepared as described above) were run at 25° C. using sodium bicarbonate buffer concentrations listed in Tables 7 and 8. A control reaction for each reaction condition was run to determine the concentration of peracetic acid produced by chemical perhydrolysis of triacetin by hydrogen peroxide in the absence of added extract protein. Determination of the concentration of peracetic acid in the reaction mixtures was performed according to the method described by Karst et al., supra. Aliquots (0.040 mL) of the reaction mixture were removed at predetermined times and mixed with 0.960 mL of 5 mM phosphoric acid in water; adjustment of the pH of the diluted sample to less than pH 4 immediately terminated the reaction. The resulting solution was filtered using an ULTRAFREE® MC-filter unit (30,000 Normal Molecular Weight Limit (NMWL), Millipore cat #UFC3LKT 00) by centrifugation for 2 min at 12,000 rpm. An aliquot (0.100 mL) of the resulting filtrate was transferred to L5-mL screw cap HPLC vial (Agilent Technologies, Palo Alto, Calif.; #5182-0715) containing 0.300 mL of deionized water, then 0.100 mL of 20 mM MTS (methyl-p-tolyl-sulfide) in acetonitrile was added, the vials capped, and the contents briefly mixed prior to a 10 min incubation at ca. 25° C. in the absence of light. To each vial was then added 0.400 mL of acetonitrile and 0.100 mL of a solution of triphenylphosphine (TPP, 40 mM) in acetonitrile, the vials re-capped, and the resulting solution mixed and incubated at ca. 25° C. for 30 min in the absence of light. To each vial was then added 0.100 mL of 10 mM N,N-diethyl-m-toluamide (DEET; HPLC external standard) and the resulting solution analyzed by HPLC as described below.
Supelco Discovery C8 column (10-cm×4.0-mm, 5 μm) (cat. #569422-U) w/precolumn Supelco Supelguard Discovery C8 (Sigma-Aldrich; cat #59590-U); 10 microliter injection volume; gradient method with CH3CN (Sigma-Aldrich; #270717) and deionized water at 1.0 mL/min and ambient temperature:
The peracetic acid concentrations produced in 1 min, 5 min and 30 min when using either 250 mM or 100 mM hydrogen peroxide are listed in Table 7 and Table 8, respectively.

B1: Thermotoga neapolitana perhydrolase: acetyl xylan esterase with perhydrolase activity from Thermotoga neapolitana (SEQ ID NO: 14), cell extract of E. coli KLP18/pSW196 (protein, listed as Thermotoga neapolitana)
chain: MAFFDMPLEELKKYRPERYEEKDFDEFWRETLKESEGFPLDPVFEKVDFHLKTVETYDVTFSGYRGQRIKGWLLVPKLAEEKLPCVVQYIGYNGGRGFPHDWLFWPSMGYICFVMDTRGQGSGWMKGDTPDYPEGPVDPQYPGFMTRGILDPGTYYYRRVFVDAVRAVEAAISFPRVDSRKVVVAGGSQGGGIALAVSALSNRVKALLCDVPFLCHFRRAVQLVDTHPYVEITNFLKTHRDKEEIVFRTLSYFDGVNFAARAKVPALFSVGLMDTICPPSTVFAAYNHYAGPKEIRIYPYNNHEGGGSFQAIEQVKFLKRLFEEG
PAA (ppm), 1 min (NaHCO3 0 mM, initial pH 5.0, 1 min, 100 mM H2O2, 50 μg/mL heated extract total protein): 0 ppm | PAA (ppm), 1 min (NaHCO3 0 mM, initial pH 5.0, 1 min, 250 mM H2O2, 50 μg/mL heated extract total protein): 161 ppm | PAA (ppm), 5 min (NaHCO3 0 mM, initial pH 5.0, 5 min, 100 mM H2O2, 50 μg/mL heated extract total protein): 29 ppm | PAA (ppm), 5 min (NaHCO3 0 mM, initial pH 5.0, 5 min, 250 mM H2O2, 50 μg/mL heated extract total protein): 152 ppm | PAA (ppm), 30 min (NaHCO3 0 mM, initial pH 5.0, 30 min, 100 mM H2O2, 50 μg/mL heated extract total protein): 11 ppm | PAA (ppm), 30 min (NaHCO3 0 mM, initial pH 5.0, 30 min, 250 mM H2O2, 50 μg/mL heated extract total protein): 180 ppm | PAA (ppm), 1 min (NaHCO3 1.0 mM, initial pH 6.0, 1 min, 100 mM H2O2, 50 μg/mL heated extract total protein): 167 ppm | PAA (ppm), 1 min (NaHCO3 1.0 mM, initial pH 6.0, 1 min, 250 mM H2O2, 50 μg/mL heated extract total protein): 511 ppm | PAA (ppm), 5 min (NaHCO3 1.0 mM, initial pH 6.0, 5 min, 100 mM H2O2, 50 μg/mL heated extract total protein): 152 ppm | PAA (ppm), 5 min (NaHCO3 1.0 mM, initial pH 6.0, 5 min, 250 mM H2O2, 50 μg/mL heated extract total protein): 610 ppm | PAA (ppm), 30 min (NaHCO3 1.0 mM, initial pH 6.0, 30 min, 100 mM H2O2, 50 μg/mL heated extract total protein): 176 ppm | PAA (ppm), 30 min (NaHCO3 1.0 mM, initial pH 6.0, 30 min, 250 mM H2O2, 50 μg/mL heated extract total protein): 608 ppm | PAA (ppm), 1 min (NaHCO3 2.5 mM, initial pH 6.5, 1 min, 100 mM H2O2, 50 μg/mL heated extract total protein): 291 ppm | PAA (ppm), 1 min (NaHCO3 2.5 mM, initial pH 6.5, 1 min, 250 mM H2O2, 50 μg/mL heated extract total protein): 718 ppm | PAA (ppm), 5 min (NaHCO3 2.5 mM, initial pH 6.5, 5 min, 100 mM H2O2, 50 μg/mL heated extract total protein): 510 ppm | PAA (ppm), 5 min (NaHCO3 2.5 mM, initial pH 6.5, 5 min, 250 mM H2O2, 50 μg/mL heated extract total protein): 1242 ppm | PAA (ppm), 30 min (NaHCO3 2.5 mM, initial pH 6.5, 30 min, 100 mM H2O2, 50 μg/mL heated extract total protein): 488 ppm | PAA (ppm), 30 min (NaHCO3 2.5 mM, initial pH 6.5, 30 min, 250 mM H2O2, 50 μg/mL heated extract total protein): 1179 ppm | PAA (ppm), 1 min (NaHCO3 5.0 mM, initial pH 6.5, 1 min, 100 mM H2O2, 50 μg/mL heated extract total protein): 377 ppm | PAA (ppm), 1 min (NaHCO3 5.0 mM, initial pH 6.5, 1 min, 250 mM H2O2, 50 μg/mL heated extract total protein): 866 ppm | PAA (ppm), 5 min (NaHCO3 5.0 mM, initial pH 6.5, 5 min, 100 mM H2O2, 50 μg/mL heated extract total protein): 955 ppm | PAA (ppm), 5 min (NaHCO3 5.0 mM, initial pH 6.5, 5 min, 250 mM H2O2, 50 μg/mL heated extract total protein): 1894 ppm | PAA (ppm), 30 min (NaHCO3 5.0 mM, initial pH 6.5, 30 min, 100 mM H2O2, 50 μg/mL heated extract total protein): 989 ppm | PAA (ppm), 30 min (NaHCO3 5.0 mM, initial pH 6.5, 30 min, 250 mM H2O2, 50 μg/mL heated extract total protein): 1931 ppm | PAA (ppm), 1 min (NaHCO3 10 mM, initial pH 7.0, 1 min, 250 mM H2O2, 50 μg/mL heated extract total protein): 1042 ppm | PAA (ppm), 5 min (NaHCO3 10 mM, initial pH 7.0, 5 min, 250 mM H2O2, 50 μg/mL heated extract total protein): 2334 ppm | PAA (ppm), 30 min (NaHCO3 10 mM, initial pH 7.0, 30 min, 250 mM H2O2, 50 μg/mL heated extract total protein): 2384 ppm | PAA (ppm), 1 min (NaHCO3 10 mM, initial pH 8.1, 1 min, 100 mM H2O2, 50 μg/mL heated extract total protein): 418 ppm | PAA (ppm), 5 min (NaHCO3 10 mM, initial pH 8.1, 5 min, 100 mM H2O2, 50 μg/mL heated extract total protein): 1035 ppm | PAA (ppm), 30 min (NaHCO3 10 mM, initial pH 8.1, 30 min, 100 mM H2O2, 50 μg/mL heated extract total protein): 1633 ppm | PAA (ppm), 1 min (NaHCO3 25 mM, initial pH 8.1, 1 min, 100 mM H2O2, 50 μg/mL heated extract total protein): 497 ppm | PAA (ppm), 1 min (NaHCO3 25 mM, initial pH 8.1, 1 min, 250 mM H2O2, 50 μg/mL heated extract total protein): 1037 ppm | PAA (ppm), 5 min (NaHCO3 25 mM, initial pH 8.1, 5 min, 100 mM H2O2, 50 μg/mL heated extract total protein): 1319 ppm | PAA (ppm), 5 min (NaHCO3 25 mM, initial pH 8.1, 5 min, 250 mM H2O2, 50 μg/mL heated extract total protein): 2655 ppm | PAA (ppm), 30 min (NaHCO3 25 mM, initial pH 8.1, 30 min, 100 mM H2O2, 50 μg/mL heated extract total protein): 2095 ppm | PAA (ppm), 30 min (NaHCO3 25 mM, initial pH 8.1, 30 min, 250 mM H2O2, 50 μg/mL heated extract total protein): 3503 ppm
